Patent publication US20090023900 (published 2009)

How the values were obtained:
integrin alphaIIbbeta3 = integrin alphaIIbbeta3 (human, UniProt P08514); assay: ELISA
integrin alphaVbeta5 = target: T1, integrin alphaVbeta5 (human, UniProt P06756); assay: ELISA
T1 chain 1: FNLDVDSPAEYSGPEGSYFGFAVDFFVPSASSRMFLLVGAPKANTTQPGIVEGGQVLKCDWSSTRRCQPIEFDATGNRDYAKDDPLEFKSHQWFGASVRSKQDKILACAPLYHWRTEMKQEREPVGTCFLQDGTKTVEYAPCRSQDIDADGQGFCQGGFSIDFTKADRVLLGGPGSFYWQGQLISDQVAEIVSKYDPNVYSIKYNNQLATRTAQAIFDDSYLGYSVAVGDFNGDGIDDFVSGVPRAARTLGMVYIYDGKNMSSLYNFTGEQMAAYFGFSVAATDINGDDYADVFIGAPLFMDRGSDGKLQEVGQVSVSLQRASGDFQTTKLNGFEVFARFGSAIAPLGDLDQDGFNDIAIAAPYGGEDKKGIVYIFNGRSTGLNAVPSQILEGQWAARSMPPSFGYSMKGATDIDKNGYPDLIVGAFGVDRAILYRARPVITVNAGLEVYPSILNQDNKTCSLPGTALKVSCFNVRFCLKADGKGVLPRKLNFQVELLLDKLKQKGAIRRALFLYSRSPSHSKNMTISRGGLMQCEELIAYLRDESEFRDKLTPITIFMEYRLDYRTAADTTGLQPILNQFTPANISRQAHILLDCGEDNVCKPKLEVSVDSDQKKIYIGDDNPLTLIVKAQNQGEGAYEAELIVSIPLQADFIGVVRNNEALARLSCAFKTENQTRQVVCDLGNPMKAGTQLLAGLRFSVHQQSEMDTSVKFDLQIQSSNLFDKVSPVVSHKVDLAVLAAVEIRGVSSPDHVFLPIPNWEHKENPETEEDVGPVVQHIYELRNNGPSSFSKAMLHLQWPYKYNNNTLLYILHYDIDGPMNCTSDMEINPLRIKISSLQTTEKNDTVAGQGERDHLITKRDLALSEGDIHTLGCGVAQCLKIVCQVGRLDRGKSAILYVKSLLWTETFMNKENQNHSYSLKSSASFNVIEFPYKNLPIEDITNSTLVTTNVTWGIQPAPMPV
T1 chain 2: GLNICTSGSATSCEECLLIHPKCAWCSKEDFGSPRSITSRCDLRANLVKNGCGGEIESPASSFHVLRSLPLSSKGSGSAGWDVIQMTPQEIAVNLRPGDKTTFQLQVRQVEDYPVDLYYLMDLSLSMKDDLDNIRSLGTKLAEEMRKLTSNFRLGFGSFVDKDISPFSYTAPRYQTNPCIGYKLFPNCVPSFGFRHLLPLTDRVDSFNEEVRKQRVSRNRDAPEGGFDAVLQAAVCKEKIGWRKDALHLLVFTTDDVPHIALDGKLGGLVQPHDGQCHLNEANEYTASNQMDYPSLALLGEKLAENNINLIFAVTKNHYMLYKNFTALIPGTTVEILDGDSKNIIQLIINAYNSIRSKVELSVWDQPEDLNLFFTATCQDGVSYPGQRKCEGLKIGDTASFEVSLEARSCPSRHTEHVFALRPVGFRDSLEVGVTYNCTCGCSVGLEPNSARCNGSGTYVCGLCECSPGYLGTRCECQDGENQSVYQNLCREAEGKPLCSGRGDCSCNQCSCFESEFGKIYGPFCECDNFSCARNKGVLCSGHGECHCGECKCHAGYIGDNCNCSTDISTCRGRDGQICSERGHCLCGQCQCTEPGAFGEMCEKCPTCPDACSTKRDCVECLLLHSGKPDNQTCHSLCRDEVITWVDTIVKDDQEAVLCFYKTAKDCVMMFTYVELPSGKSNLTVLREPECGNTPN

binding result (integrin alphaIIbbeta3): no binding
binding result (integrin alphaVbeta5): no binding
B1: Vitaxin (antibody, V domains shown)
VH: QVQLVESGGGVVQPGRSLRLSCAASGFTFSSYDMSWVRQAPGKGLEWVAKVSSGGGSTYYLDTVQGRFTISRDNSKNTLYLQMNSLRAEDTAVYYCARHNYGSFAYWGQGTTVTVSS
VL: EIVLTQSPATLSLSPGERATLSCQASQSISNHLHWYQQRPGQAPRLLIKYRSQSISGIPARFSGSGSGTDFTLTISSLEPEDFAVYYCQQSGSWPHTFGGGTKVEIK
